# Laboratory results as given in patent US20110098217A1 (INDIANA UNIVERSITY RESEARCH AND TECHNOLOGY, published 2011).
# Values joined by “and” are separate entries in the source; they are usually repeats but may differ in a detail not shown here. Equal values may be shown once. Read-outs that look alike come from different tables or passages of the source. Bridge positions count the residues as written; N and C are the ends. Square brackets hold non-standard residues; d marks the D form. Ends that are not written are not given here. PhLac = O=C(O)[C@@H](O)Cc1ccccc1
# Tests used:
# human glucagon receptor [1] = biological target: T1, human glucagon receptor (human, UniProt P47871 26-477); test: cell-based or functional assay
# human GLP-1 receptor [2] = biological target: T2, human GLP-1 receptor (human, UniProt P43220 24-463); test: cell-based or functional assay
# Target sequence in this assay (P43220 24-463): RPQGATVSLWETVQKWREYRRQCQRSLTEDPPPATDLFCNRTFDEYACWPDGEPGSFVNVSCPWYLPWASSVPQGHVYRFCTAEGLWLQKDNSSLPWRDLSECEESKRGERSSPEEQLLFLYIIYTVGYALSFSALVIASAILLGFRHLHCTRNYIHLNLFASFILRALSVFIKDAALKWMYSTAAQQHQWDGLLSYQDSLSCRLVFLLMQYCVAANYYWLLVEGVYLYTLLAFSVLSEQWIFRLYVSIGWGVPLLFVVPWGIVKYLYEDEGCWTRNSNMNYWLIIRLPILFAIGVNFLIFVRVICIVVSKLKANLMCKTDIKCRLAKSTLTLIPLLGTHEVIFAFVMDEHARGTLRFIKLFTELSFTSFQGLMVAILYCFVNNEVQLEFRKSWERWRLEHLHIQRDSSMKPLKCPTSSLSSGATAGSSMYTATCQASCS
# [3] = biological target: human GLP-1 receptor (human) (UniProt P43220); test: cell-based or functional assay
# [4] = biological target: human glucagon receptor (human) (UniProt P47871); test: cell-based or functional assay
# [5] = biological target: human GLP-1 receptor (human) (UniProt P43220); test: cell-based or functional assay; remark: listed apart in the source
# [6] = biological target: human glucagon receptor (human) (UniProt P47871); test: cell-based or functional assay; remark: listed apart in the source
# human glucagon receptor [7] = biological target: T1, human glucagon receptor; test: SPA competition vs 125I-glucagon, receptor membranes
# human glucagon receptor [8] = biological target: T1, human glucagon receptor; test: cell-based or functional assay; remark: listed apart in the source
# human glucagon receptor [9] = biological target: T1, human glucagon receptor; test: SPA competition vs 125I-glucagon, receptor membranes; remark: listed apart in the source
# human glucagon receptor [10] = biological target: T1, human glucagon receptor; test: as above; remark: listed apart in the source
# human glucagon receptor [11] = biological target: T1, human glucagon receptor; test: cell-based or functional assay; remark: listed apart in the source
# human glucagon receptor [12] = biological target: T1, human glucagon receptor; test: cell-based or functional assay; remark: listed apart in the source
# human glucagon receptor [13] = biological target: T1, human glucagon receptor; test: SPA competition vs 125I-glucagon, receptor membranes; remark: listed apart in the source
# human glucagon receptor [14] = biological target: T1, human glucagon receptor; test: cell-based or functional assay; remark: listed apart in the source
# human GLP-1 receptor [15] = biological target: T2, human GLP-1 receptor; test: cell-based or functional assay; remark: listed apart in the source
# human glucagon receptor [16] = biological target: T1, human glucagon receptor; test: cell-based or functional assay; remark: listed apart in the source
# human glucagon receptor [17] = biological target: T1, human glucagon receptor; test: cell-based or functional assay; remark: listed apart in the source
# human glucagon receptor [18] = biological target: T1, human glucagon receptor; test: SPA competition vs 125I-glucagon, receptor membranes; remark: listed apart in the source
# human glucagon receptor [19] = biological target: T1, human glucagon receptor; test: as above; remark: listed apart in the source
# human glucagon receptor [20] = biological target: T1, human glucagon receptor; test: cell-based or functional assay; remark: listed apart in the source
# human glucagon receptor [21] = biological target: T1, human glucagon receptor; test: cell-based or functional assay; remark: listed apart in the source
# human GLP-1 receptor [22] = biological target: T2, human GLP-1 receptor; test: cell-based or functional assay; remark: listed apart in the source
# human GLP-1 receptor [23] = biological target: T2, human GLP-1 receptor; test: cell-based or functional assay; remark: listed apart in the source
# human glucagon receptor [24] = biological target: T1, human glucagon receptor; test: cell-based or functional assay; remark: listed apart in the source
# human GLP-1 receptor [25] = biological target: T2, human GLP-1 receptor; test: cell-based or functional assay; remark: listed apart in the source
# human glucagon receptor [26] = biological target: T1, human glucagon receptor; test: cell-based or functional assay; remark: listed apart in the source
# human GLP-1 receptor [27] = biological target: T2, human GLP-1 receptor; test: cell-based or functional assay; remark: listed apart in the source
# human glucagon receptor [28] = biological target: T1, human glucagon receptor; test: cell-based or functional assay; remark: listed apart in the source
# human GLP-1 receptor [29] = biological target: T2, human GLP-1 receptor; test: cell-based or functional assay; remark: listed apart in the source
# human glucagon receptor [30] = biological target: T1, human glucagon receptor; test: cell-based or functional assay; remark: listed apart in the source
# human GLP-1 receptor [31] = biological target: T2, human GLP-1 receptor; test: cell-based or functional assay; remark: listed apart in the source
# human glucagon receptor [32] = biological target: T1, human glucagon receptor; test: cell-based or functional assay; remark: listed apart in the source
# human GLP-1 receptor [33] = biological target: T2, human GLP-1 receptor; test: cell-based or functional assay; remark: listed apart in the source
# human glucagon receptor [34] = biological target: T1, human glucagon receptor; test: cell-based or functional assay; remark: listed apart in the source
# human GLP-1 receptor [35] = biological target: T2, human GLP-1 receptor; test: cell-based or functional assay; remark: listed apart in the source
# human GLP-1 receptor [36] = biological target: T2, human GLP-1 receptor; test: cell-based or functional assay; remark: listed apart in the source
# T1 sequence (P47871 26-477): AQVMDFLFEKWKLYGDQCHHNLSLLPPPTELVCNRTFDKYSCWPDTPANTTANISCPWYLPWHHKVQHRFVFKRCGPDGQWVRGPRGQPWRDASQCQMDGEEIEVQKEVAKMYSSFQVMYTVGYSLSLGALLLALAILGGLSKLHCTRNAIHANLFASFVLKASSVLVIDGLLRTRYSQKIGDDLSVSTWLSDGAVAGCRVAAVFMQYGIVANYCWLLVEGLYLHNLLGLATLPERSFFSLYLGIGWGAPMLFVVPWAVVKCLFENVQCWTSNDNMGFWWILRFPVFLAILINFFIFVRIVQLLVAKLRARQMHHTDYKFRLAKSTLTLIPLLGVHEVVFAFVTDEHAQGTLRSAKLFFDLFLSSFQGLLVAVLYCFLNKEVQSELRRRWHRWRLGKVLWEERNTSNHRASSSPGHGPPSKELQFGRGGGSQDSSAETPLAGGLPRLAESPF
# human glucagon receptor (human), sequence (P47871 26-477): as above
# human GLP-1 receptor (human), sequence (P43220 24-463): as the sequence (P43220 24-463) above
molecule,measurement,setting,value
"[PLA6, E9, K12E16(Lactam)] glucagon(6-39) (peptide)",Glu IC50,human glucagon receptor [1],72 nM
same,Glucagon IC50,human glucagon receptor [1],72 nM
same,GLP-1 EC50,human GLP-1 receptor [2],6 nM
"FTSDYSKYLDERRAQDFVQWLMNTGPSSGAPPPS (lactam bridge Lys12-Glu16; C-terminal amide) [D9, K12E16(Lactam) glucagon(6-39)]",GLP-1 EC50,[3],18 nM
same,Glucagon IC50,[4],828 nM
same,GLP-1 EC50,[5],119 nM
same,Glu IC50,[6],828 nM
FTSEYSKYLDSRRAQDFVQWLMNT-NH2 (also called [E^9]Glucagon(aa6-29)-NH2; peptide no; 11) [[Glu^9]Glucagon(aa6-29)-NH2],IC50,human glucagon receptor [7],36 nM
same,cAMP Inhibition IC50,human glucagon receptor [8],97 nM
same,IC50,human glucagon receptor [9],36.4 nM
same,IC50,human glucagon receptor [10],36.4 nM
same,cAMP (I/A)50 inhibition index,human glucagon receptor [11],486
same,cAMP pA2,human glucagon receptor [11],7.16
same,cAMP IC50,human glucagon receptor [12],97.2 nM
same,cAMP pA2,human glucagon receptor [12],7.16
"[PhLac]TSEYSKYLDSRRAQDFVQWLMNT-NH2 (also called [PLA6, E9]; G(6-29); [PLA6, E9]Glucagon(6-29)) [[PLA^6, E^9]Glucagon(aa6-29)-NH2]",IC50,human glucagon receptor [13],12.3 nM
same,Glucagon antagonism IC50 (inhibit 0.8 nM glucagon),human glucagon receptor [14],94.7 nM
same,GLP-1 agonism EC50,human GLP-1 receptor [15],901 nM
same,"IC50 (cAMP, inhibit 0.8 mM Glucagon)",human glucagon receptor [16],64.8 nM
same,"IC50 (cAMP, inhibit 0.1 nM Glucagon)",human glucagon receptor [17],2.39 nM
same,"IC50 (cAMP, inhibit 0.2 nM Glucagon)",human glucagon receptor [17],42.4 nM
same,fold increase of affinity relative to the native Phe6 analog,human glucagon receptor [18],3 fold
same,IC50,human glucagon receptor [19],12.3 nM
same,Glucagon antagonism IC50 (inhibit 0.5nM G),human glucagon receptor [20],23.8 nM
"[PhLac]TSDYSKYLDERRAKDFVQWLMDT-NH2 (lactam 11-15) [[PLA6, E16K20(lactam), D28]G(6-29)]",Glucagon antagonism IC50 (inhibit 0.2-0.8 nM glucagon),human glucagon receptor [21],11.7 nM and 5.5 nM
same,GLP-1 agonism EC50,human GLP-1 receptor [22],6.9 nM and 4.2 nM
same,GLP-1 agonism EC50,human GLP-1 receptor [23],20.7 nM
same,Glucagon antagonism IC50 (inhibit 0.8 nM glucagon),human glucagon receptor [14],20.3 nM
same,GLP-1 agonism EC50,human GLP-1 receptor [15],18.2 nM
same,Glucagon antagonism IC50 (inhibit 0.2-0.8 nM glucagon),human glucagon receptor [24],11.7 nM and 5.5 nM
same,GLP-1 agonism EC50,human GLP-1 receptor [25],6.9 nM and 4.2 nM
same,Glucagon antagonism IC50 (inhibit 0.8 nM glucagon),human glucagon receptor [26],13.7 nM
same,GLP-1 agonism EC50,human GLP-1 receptor [27],10.6 nM
same,Glucagon antagonism IC50 (inhibit 0.4 nM glucagon),human glucagon receptor [28],4.14 nM and 7.99 nM
same,GLP-1 agonism EC50,human GLP-1 receptor [29],48 nM
same,Glucagon IC50,human glucagon receptor [30],6 nM
same,GLP-1 EC50,human GLP-1 receptor [31],4 nM
same,Glucagon antagonism IC50 (inhibit 0.8 nM glucagon),human glucagon receptor [32],13.7 nM
same,GLP-1 agonism EC50,human GLP-1 receptor [33],10.6 nM
HSQGTFTSDYSRYLDSRRAQDFVQWLMNK [Glucagon R12 K29],cAMP Induction EC50,human glucagon receptor [34],0.81 nM
same,cAMP Induction EC50,human GLP-1 receptor [35],0.41 nM
"SQGTXTSEYSKYLDSRRAQDFVQWLMNT (depsipeptide bond between Thr5 and PLA6; C-terminal amide) [[Thr5-O-PLA6,E9]Glucagon(2-29)]",Glucagon antagonism IC50 (inhibit 0.5nM G),human glucagon receptor [20],6.49 nM
same,GLP-1 agonism EC50,human GLP-1 receptor [36],1310 nM
GTFTSEYSKYLDSRRAQDFVQWLMNT-NH2 (also called peptide no) [[Glu^9]Glucagon(aa4-29)-NH2],cAMP Inhibition IC50,human glucagon receptor [8],128 nM
same,cAMP pA2,human glucagon receptor [11],7.05
